Laboratory results reported in article PMC4559421, “Interaction of Yna1 and Yna2 Is Required for Nuclear Accumulation and Transcriptional Activation of the Nitrate Assimilation Pathway in the Yeast Hansenula polymorpha”.

Tests used:
Details in all cases: protein: recombinant; tags: His; chain copies: 2; label: 32P end label
HIS-Yna2p(1-180) [1] = target: T1, HIS-Yna2p(1-180) (Hansenula polymorpha (syn. Pichia …, UniProt Q9HFM7 1-180)); experiment: EMSA; poly(dIdC); EMSA: 75 ng protein in 10 ul KCl 1 mM, spermidine 80 mM (so in the source), 0.1 mg/ml poly(dIdC), on ice then 30 min at room temperature with probe; 6% PAGE, 50% glycerol, 0.5x TBE; pH not stated
T1 sequence: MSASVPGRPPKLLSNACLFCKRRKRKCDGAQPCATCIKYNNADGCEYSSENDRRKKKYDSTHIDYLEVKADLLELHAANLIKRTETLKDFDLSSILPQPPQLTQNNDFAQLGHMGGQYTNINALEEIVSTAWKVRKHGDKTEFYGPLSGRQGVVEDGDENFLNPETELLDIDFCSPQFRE

HIS-Yna1p(1-185) [2] = target: T2, HIS-Yna1p(1-185) (Hansenula polymorpha (syn. Pichia …, UniProt O93984 1-185)); experiment: EMSA; poly(dIdC); complex diminished by 1x-2x unlabelled probe; EMSA: 75 ng protein in 10 ul KCl 1 mM, spermidine 80 mM (so in the source), 0.1 mg/ml poly(dIdC), on ice then 30 min at room temperature with probe; 6% PAGE, 50% glycerol, 0.5x TBE; pH not stated
T2 sequence: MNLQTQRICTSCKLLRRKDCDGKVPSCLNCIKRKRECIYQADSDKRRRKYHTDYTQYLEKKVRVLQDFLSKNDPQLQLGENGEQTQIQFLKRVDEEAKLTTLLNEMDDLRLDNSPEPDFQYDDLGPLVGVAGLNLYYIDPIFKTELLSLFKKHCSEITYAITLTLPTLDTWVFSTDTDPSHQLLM

HIS-Yna2p(1-180) [3] = target: T1, HIS-Yna2p(1-180); experiment: EMSA; poly(dIdC); no detectable complex; EMSA: 75 ng protein in 10 ul KCl 1 mM, spermidine 80 mM (so in the source), 0.1 mg/ml poly(dIdC), on ice then 30 min at room temperature with probe; 6% PAGE, 50% glycerol, 0.5x TBE; pH not stated
HIS-Yna1p(1-185) [4] = target: T2, HIS-Yna1p(1-185); experiment: EMSA; poly(dIdC); complex abrogated by 1x-2x unlabelled probe; less stable than with probe 1; EMSA: 75 ng protein in 10 ul KCl 1 mM, spermidine 80 mM (so in the source), 0.1 mg/ml poly(dIdC), on ice then 30 min at room temperature with probe; 6% PAGE, 50% glycerol, 0.5x TBE; pH not stated
HIS-Yna1p(1-185) [5] = target: T2, HIS-Yna1p(1-185); experiment: EMSA; poly(dIdC); complex formation disrupted; EMSA: 75 ng protein in 10 ul KCl 1 mM, spermidine 80 mM (so in the source), 0.1 mg/ml poly(dIdC), on ice then 30 min at room temperature with probe; 6% PAGE, 50% glycerol, 0.5x TBE; pH not stated
HIS-Yna1p(1-185) [6] = target: T2, HIS-Yna1p(1-185); experiment: EMSA; poly(dIdC); binding disrupted; EMSA: 75 ng protein in 10 ul KCl 1 mM, spermidine 80 mM (so in the source), 0.1 mg/ml poly(dIdC), on ice then 30 min at room temperature with probe; 6% PAGE, 50% glycerol, 0.5x TBE; pH not stated

B1: YNT1 probe 1 (dsDNA)
DNA 1: CCCGCTCATCGGAGAATATTCTGCTCAAAATTAAGGATGCCCAT
DNA 2: ATGGGCATCCTTAATTTTGAGCAGAATATTCTCCGATGAGCGGG
B1: binds (HIS-Yna2p(1-180) [1]); binds (HIS-Yna1p(1-185) [2]).

B2: YNT1 probe 2 (dsDNA)
DNA 1: GGCTAGCATCCCGCTCATCGGAGAATATTCTGC
DNA 2: GCAGAATATTCTCCGATGAGCGGGATGCTAGCC
B2: no binding (HIS-Yna2p(1-180) [3]); binds (HIS-Yna1p(1-185) [4]).

B3: YNT1 probe 2 m1 (dsDNA)
DNA 1: GGCTAGCATCAATCTCATCGGAGAATATTCTGC
DNA 2: GCAGAATATTCTCCGATGAGATTGATGCTAGCC
B3: no binding (HIS-Yna1p(1-185) [5]).

B4: YNT1 probe 2 m2 (dsDNA)
DNA 1: GGCTAGCATCCCGCTCATATTAGAATATTCTGC
DNA 2: GCAGAATATTCTAATATGAGCGGGATGCTAGCC
B4: no binding (HIS-Yna1p(1-185) [6]).
